Results from patent US20250326842A1 (BEIGENE SWITZERLAND, published 2025).
Where a chain is given by its changes, count along the chain named. Where two headings read alike, the source gives them in different places.

What was measured:
[1] = biological target: T1, human PVRL2 overexpressed on Farage cells (human, UniProt Q92692 32-538); test: flow cytometry: 300 ng/ml hPVRIG-mIgG2a on Farage-hPVRL2 cells, PE anti-mouse IgG2a [panel A]
T1 construct: also called Farage-hPVRL2 cells; surface PVRL2
T1 sequence: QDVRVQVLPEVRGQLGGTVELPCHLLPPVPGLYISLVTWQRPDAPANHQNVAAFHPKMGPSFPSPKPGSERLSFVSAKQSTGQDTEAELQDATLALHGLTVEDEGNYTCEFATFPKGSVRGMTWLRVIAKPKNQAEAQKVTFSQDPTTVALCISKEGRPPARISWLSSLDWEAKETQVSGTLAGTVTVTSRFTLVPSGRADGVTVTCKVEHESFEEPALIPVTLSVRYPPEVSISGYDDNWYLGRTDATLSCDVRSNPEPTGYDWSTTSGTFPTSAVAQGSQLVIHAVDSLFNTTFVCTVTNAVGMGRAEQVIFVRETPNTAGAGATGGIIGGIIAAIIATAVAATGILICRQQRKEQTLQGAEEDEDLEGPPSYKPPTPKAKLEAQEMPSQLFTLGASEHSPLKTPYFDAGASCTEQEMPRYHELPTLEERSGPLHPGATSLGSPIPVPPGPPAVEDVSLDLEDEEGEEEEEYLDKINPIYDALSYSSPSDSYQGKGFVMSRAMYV

[2] = biological target: T2, Cyno PVRIG expressed on HEK293 cells (cynomolgus monkey); test: flow cytometry on 293T cells expressing cyno PVRIG, anti-hFc-AF647 detection [panel A]
T2 construct: also called native Cyno PVRIG
T2 chain: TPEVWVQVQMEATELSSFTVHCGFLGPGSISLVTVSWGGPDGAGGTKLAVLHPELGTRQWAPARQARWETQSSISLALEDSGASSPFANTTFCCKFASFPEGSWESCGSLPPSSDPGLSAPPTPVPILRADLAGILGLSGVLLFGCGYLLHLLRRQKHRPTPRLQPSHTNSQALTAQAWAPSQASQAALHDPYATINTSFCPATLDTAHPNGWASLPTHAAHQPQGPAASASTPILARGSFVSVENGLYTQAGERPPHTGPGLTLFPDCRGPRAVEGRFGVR
Experimental: (§1) To evaluate the binding activity of anti-PVRIG antibodies to native Cyno PVRIG on living cells. HEK293 cells were engineered to express Cyno PVRIG. HEK293 cells transfected with Cyno PVRIG were seeded in 96 well plates and were incubated with a serial dilution of anti-PVRIG antibodies. […] EC50 values for dose dependent binding to Cyno native PVRIG were determined by fitting the dose response data to the four-parameter logistic model with GraphPad Prism™.

[3] = biological target: T3, human PVRIG recombinant protein (human, UniProt Q6DKI7 41-171); test: SPR, antibody captured via anti-human Fc, human PVRIG analyte
T3 construct: also called human PVRIG protein; recombinant human antigen PVRIG
T3 sequence: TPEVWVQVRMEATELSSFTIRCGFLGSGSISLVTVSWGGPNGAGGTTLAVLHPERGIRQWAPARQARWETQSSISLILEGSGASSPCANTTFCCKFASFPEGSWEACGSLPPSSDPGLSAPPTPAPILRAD
Source text: For affinity determination, anti-PVRIG antibodies were captured by anti-human Fc antibodies, and used in the affinity assay based on surface plasmon resonance (SPR) technology.

[4] = biological target: T3, human PVRIG recombinant protein; test: as above; remark: listed apart in the source
Experimental: Chimeric anti-PVRIG antibodies were generated in human IgG1 format and characterized for binding kinetics by surface plasmon resonance (SPR) assays using BIAcore™ T-200 (GE Life Sciences). […] Then a serial dilution of human or Cyno PVRIG protein was flowed over the chip surface and changes in surface plasmon resonance signals were analyzed to calculate the association rates (kₒₙ) and dissociation rates (koff) by using the one-to-one Langmuir binding model (BIA Evaluation Software, GE Life Sciences). The equilibrium dissociation constant (KD) was calculated as the ratio koff/kₒₙ.

hPVRIG-ECD-his [5] = biological target: T4, hPVRIG-ECD-his (human, UniProt Q6DKI7 41-171); test: blocking ELISA: hPVRIG-His coated, antibody mixed with PVRL2-biotin at 1 ug/mL; % inhibition of PVRL2 binding [panel A]
T4 construct: Acrobiosystems PVG-H52H4; also called hPVRIG-His; human PVRIG-His; not shown: His tag
T4 sequence: T3 sequence

hPVRIG-ECD-his [6] = biological target: T4, hPVRIG-ECD-his; test: competition ELISA, antibody against PVRL2 on coated human PVRIG
[7] = biological target: T5, human PVRIG expressed on cells (human, UniProt Q6DKI7 41-326); test: FACS on human PVRIG-expressing cells
T5 construct: Jurkat cells engineered to express human PVRIG; also called hPVRIG-Jurkat; native human PVRIG
T5 sequence: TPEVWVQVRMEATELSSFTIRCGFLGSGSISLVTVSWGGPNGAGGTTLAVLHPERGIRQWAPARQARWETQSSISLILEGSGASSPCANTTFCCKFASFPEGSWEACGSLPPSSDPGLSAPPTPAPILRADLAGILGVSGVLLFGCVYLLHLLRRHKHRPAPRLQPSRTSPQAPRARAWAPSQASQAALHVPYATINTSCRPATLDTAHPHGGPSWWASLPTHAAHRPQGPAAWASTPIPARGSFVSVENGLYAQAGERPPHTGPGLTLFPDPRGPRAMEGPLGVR

[8] = biological target: T3, human PVRIG recombinant protein; test: ELISA, chimeric antibody on recombinant human PVRIG
[9] = biological target: T5, human PVRIG expressed on cells; test: flow cytometry on Jurkat cells expressing human PVRIG, anti-hFc-AF647 detection [panel A]
Experimental: as §1, with “native” for “native Cyno”, “cells, Jurkat” for “cells. HEK293”, “human” for “Cyno”, “Jurkat” for “HEK293”, “expressing” for “transfected with Cyno”, “serially diluted” for “a serial dilution of”

[10] = biological target: T2, Cyno PVRIG expressed on HEK293 cells; test: flow cytometry on HEK293 cells expressing cyno PVRIG, anti-hFc-647 detection [panel B]
Experimental: as §1

[11] = biological target: T5, human PVRIG expressed on cells; test: flow cytometry on Jurkat cells expressing human PVRIG, anti-hFc-647 detection [panel B]
Experimental: as §1, with “native” for “native Cyno”, “cells, Jurkat” for “cells. HEK293”, “human” for “Cyno”, “Jurkat” for “HEK293”, “expressing” for “transfected with Cyno”, “serially diluted” for “a serial dilution of”

[12] = biological target: T5, human PVRIG expressed on cells; test: flow cytometry on Jurkat cells expressing human PVRIG, anti-hFc-AF647 detection
Experimental: To evaluate the binding activity of anti-PVRIG antibodies to native PVRIG on living cells, Jurkat cells were engineered to express human PVRIG. […] EC50 values for dose dependent binding to human native PVRIG were determined by fitting the dose response data to the four-parameter logistic model with GraphPad Prism™.

[13] = biological target: T2, Cyno PVRIG expressed on HEK293 cells; test: flow cytometry on 293T cells expressing cyno PVRIG, anti-hFc-AF647 detection
Experimental: To evaluate the binding activity of anti-PVRIG antibodies to native Cyno PVRIG on living cells. HEK293 cells were engineered to express Cyno PVRIG. HEK293 expressing PVRIG cells were seeded in 96 well plates and were incubated with a serial dilution of anti-PVRIG antibodies. […] EC50 values for dose dependent binding to Cyno native PVRIG were determined by fitting the dose response data to the four-parameter logistic model with GraphPad Prism™.

hPVRIG-ECD-his [14] = biological target: T4, hPVRIG-ECD-his; test: blocking ELISA: hPVRIG-His coated, antibody mixed with PVRL2-biotin at 1 ug/mL; % inhibition of PVRL2 binding
[15] = biological target: T3, human PVRIG recombinant protein; test: SPR, antibody captured via anti-human Fc, human PVRIG analyte; remark: listed apart in the source
Source text: For affinity determination, antibodies were captured by anti-human Fc antibodies, and used in the affinity determination based on surface plasmon resonance (SPR) technology.

B1: human PVRIG-mIgG2a (Fc fusion)
chain: T3 sequence
notes: also called hPVRIG-mIgG2a; hPVRIG; not shown: mouse IgG2a Fc
binding result [1]: binds

B2: BGA38 (antibody, V domains shown)
VH: EVQLQESGAEHVMPGASVKMSCKAAGYTFTDYWMYWVKQRPGQGLEWIGTIDTSDHKTSYNQKFRGKATLTVDESSSTAYMQLSSLTSEDSAVYYCARDFIITVNYPVVDYWGQGTSVTVSS
VL: QNVLTQSPAIMSASPGEKVTITCSAGSSVNYMHWFQQKPGTSPKLWIYSTSNLASGVPARFSGSGSGTSYSLTISRMEAEDAATYYCQQRSSLPFTFGSGTKLEIK
notes: also called BGA38-WT
EC50 (read off the curve) [2]: ~0.05 µg/mL | Kd [3]: 0.045 nM | koff [3]: 0.000175 s⁻¹ | kon [3]: 3.89e+06 M⁻¹ s⁻¹ | Kd [4]: 0.112 nM | koff [4]: 0.00017 s⁻¹ | kon [4]: 1.52e+06 M⁻¹ s⁻¹ | IC50 (read off the curve) (hPVRIG-ECD-his [5]): ~0.6 µg/mL | IC50 (hPVRIG-ECD-his [6]): 1.5 nM | PVRIG/PVRL2 blocking Emax (% Inhibition) (hPVRIG-ECD-his [6]): 60% | EC50 [7]: 0.059 nM | binding Emax (MFI) [7]: 1040 MFI | EC50 [8]: 0.524 nM | EC50 (read off the curve) [9]: ~0.03 µg/mL

B3: BGA381 (antibody, V domains shown)
VH: EVQLVQSGAEVKKPGASVKVSCKASGYTFTDYWIYWVRQAPGQGLEWMGTIDTSDHKTSYNQKFRGRVTMTRDTSTSTVYMELSSLRSEDTAVYYCARDFIITVNYPVVDYWGQGTLVTVSS
VL: QIVLTQSPATLSLSPGERATLSCSAGSSVNYMHWFQQKPGQAPRLLIYSTSNLASGVPARFSGSGSGTDYTLTISSLEPEDFAVYYCQQRSSLPFTFGQGTKLEIK
notes: Humanized BGA38; also called BGA381-WT; BGA381/IgG1 WT
EC50 (read off the curve) [2]: ~0.06 µg/mL | Kd [3]: 0.0707 nM | koff [3]: 0.000311 s⁻¹ | kon [3]: 4.4e+06 M⁻¹ s⁻¹ | IC50 (read off the curve) (hPVRIG-ECD-his [5]): ~0.4 µg/mL | EC50 (read off the curve) [10]: ~0.06 µg/mL | EC50 (read off the curve) [11]: ~0.03 µg/mL | EC50 (read off the curve) [9]: ~0.03 µg/mL

B4: BGA86 (antibody, human IgG1, V domains shown)
VH: EVQLQESGGGSVKPGGSLQLSCAASGFTFSSYGMSWIRQSPEKKLEWVAEISSGGTYTYYPDTVTGRFTISRDNAKNTLYLEMSSLRSEDTAMYYCARGDPFGYWGQGTLVTVSA
VL: DVVMTQSHKFVSTSVGGRVSITCKASQDVMTAVAWYQQKPGQSPKLLIYSTSYRFTGVPDRFTGSGSGTDFTLTINGVQAEDLAVYSCQQHYSTPRTFGGGTKLEIK
notes: also called BGA86-WT
EC50 (read off the curve) [12]: ~0.02 µg/mL | EC50 (read off the curve) [13]: ~0.01 µg/mL | IC50 (read off the curve) (hPVRIG-ECD-his [14]): ~0.1 µg/mL | Kd [4]: 0.161 nM | koff [4]: 0.00215 s⁻¹ | kon [4]: 1.34e+07 M⁻¹ s⁻¹ | Kd [15]: 0.304 nM | koff [15]: 0.000772 s⁻¹ | kon [15]: 2.54e+06 M⁻¹ s⁻¹ | IC50 (hPVRIG-ECD-his [6]): 0.885 nM | PVRIG/PVRL2 blocking Emax (% Inhibition) (hPVRIG-ECD-his [6]): 97.2% | EC50 [7]: 0.038 nM | binding Emax (MFI) [7]: 1030 MFI | EC50 [8]: 0.069 nM

B5: BGA861 (antibody, V domains shown)
VH: EVQLVESGGGLVKPGGSLRLSCAASGFTFSSYGISWVRQAPGKGLEWVSEISSGGTYTYYPDTVTGRFTISRDNAKNTLYLQMSSLRAEDTAVYYCARGDPFGYWGQGTLVTVSS
VL: DIQMTQSPSSLSASVGDRVTITCKASQDVMTAVAWYQQKPGKAPKLLIYSTSYRFTGVPSRFSGSGSGTDFTLTISSLQPEDFATYYCQQHYSTPRTFGGGTKVEIK
notes: Humanized BGA86
EC50 (read off the curve) [12]: ~0.02 µg/mL | EC50 (read off the curve) [13]: ~0.04 µg/mL | IC50 (read off the curve) (hPVRIG-ECD-his [14]): ~0.2 µg/mL | Kd [15]: 0.645 nM | koff [15]: 0.000954 s⁻¹ | kon [15]: 1.48e+06 M⁻¹ s⁻¹

B6: BGA862 (antibody, V domains shown)
VH: B5 VH with I34L
VL: B5 VL
notes: Humanized BGA86
EC50 (read off the curve) [12]: ~0.01 µg/mL | EC50 (read off the curve) [13]: ~0.01 µg/mL | IC50 (read off the curve) (hPVRIG-ECD-his [14]): ~0.1 µg/mL | Kd [15]: 0.898 nM | koff [15]: 0.00216 s⁻¹ | kon [15]: 2.41e+06 M⁻¹ s⁻¹
